Results taken from US20240343814A1.

Tests used:
[1] = molecular target: Recombinant human his-tagged IGF 1R extracellular domain protein (human) (UniProt P08069); experiment: SPR, captured IgG, IGF-1R ECD-his analyte, dissociation pH 6
[2] = molecular target: Recombinant human his-tagged IGF 1R extracellular domain protein (human) (UniProt P08069); experiment: SPR, captured IgG, IGF-1R ECD-his analyte, dissociation pH 7.4

| Kd [1] [nM] | koff [1] [s⁻¹] | kon [1] [M⁻¹ s⁻¹] | Kd [2] [nM] | koff [2] [s⁻¹] | kon [2] [M⁻¹ s⁻¹] | Binder |
| --- | --- | --- | --- | --- | --- | --- |
| 0.0348 | 1e-06 | 28700 | 0.771 | 6.38e-05 | 82800 | VRDN-02551 (antibody, V domains shown) VH: EVQLVQSGGGLVKPGGSLRLSCAASGFTFSSFAMHWVRQAPGKGLEWISVIDTRGATYYADSVKGRFTISRDNAKNSLYLQMNSLRAEDTAVYYCARLGNFYYGMDVWGQGTTVTVSS VL: EIVLTQSPGTLSVSPGERATLSCRASQSIGSSLHWYQQKPGQAPRLLIKYASQSLSGIPDRFSGSGSGTDFTLTISRLEPEDFAVYYCHQSSRLHHTFGQGTKVEIK |
| 0.0422 | 1e-06 | 23700 | 2.6 | 0.000375 | 144000 | VRDN-02505 (antibody, V domains shown) VH: EVQLVQSGGGLVKPGGSLRLSCAASGFTFHSFAMHWVRQAPGKGLEWISVIDTRGATYYADSVKGRFTISRDNAKNSLYLQMNSLRAEDTAVYYCARLGNFYYGMDVWGQGTTVTVSS VL: EIVLTQSPGTLSVSPGERATLSCRASQSIGSSLHWYQQKPGQAPRLLIKYASQSLSGIPDRFSGSGSGTDFTLTISRLEPEDFAVYYCHQSSRLPHTFGQGTKVEIK |
| 0.0239 | 1e-06 | 41900 | 0.0311 | 1e-06 | 32200 | VRDN-02552 (antibody, V domains shown) VH: EVQLVQSGGGLVKPGGSLRLSCAASGFTFSSFAMHWVRQAPGKGLEWISVIDTRGATYYADSVKGRFTISRDNAKNSLYLQMNSLRAEDTAVYYCARLGNFYYGMDVWGQGTTVTVSS VL: EIVLTQSPGTLSVSPGERATLSCRASQSIGSSLHWYQQKPGQAPRLLIKYASQSLSGIPDRFSGSGSGTDFTLTISRLEPEDFAVYYCHQSSRLPHHFGQGTKVEIK |
| 0.615 | 0.00239 | 3.88e+06 | 8.16 | 0.00119 | 146000 | VRDN-02557 (antibody, V domains shown) VH: EVQLVQSGGGLVKPGGSLRLSCAASGFTFSSFAMHWVRQAPGKGLEWISVIDTRGATYYADSVKGRFTISRDNAKNSLYLQMNSLRAEDTAVYYCARLGNFYYGHDVWGQGTTVTVSS VL: EIVLTQSPGTLSVSPGERATLSCRASQSIGSSLHWYQQKPGQAPRLLIKHASQSLSGIPDRFSGSGSGTDFTLTISRLEPEDFAVYYCHQSSRLPHTFGQGTKVEIK |
| 1.74 | 0.000567 | 327000 | 0.593 | 0.000503 | 849000 | VRDN-02559 (antibody, V domains shown) VH: EVQLVQSGGGLVKPGGSLRLSCAASGFTFSSFHMHWVRQAPGKGLEWISVIDTRGATYYADSVKGRFTISRDNAKNSLYLQMNSLRAEDTAVYYCHRLGNFYYGMDVWGQGTTVTVSS VL: EIVLTQSPGTLSVSPGERATLSCRASQSIGSSLHWYQQKPGQAPRLLIKYASQSLSGIPDRFSGSGSGTDFTLTISRLEPEDFAVYYCHQSSRLPHTFGQGTKVEIK |
| 0.996 | 0.000541 | 543000 | 0.933 | 0.0336 | 3.61e+07 | VRDN-02560 (antibody, V domains shown) VH: EVQLVQSGGGLVKPGGSLRLSCAASGFTFSSFHMHWVRQAPGKGLEWISVIDTRGATYYADSVKGRFTISRDNAKNSLYLQMNSLRAEDTAVYYCARLGNFYYHMDVWGQGTTVTVSS VL: EIVLTQSPGTLSVSPGERATLSCRASQSIGSSLHWYQQKPGQAPRLLIKYASQSLSGIPDRFSGSGSGTDFTLTISRLEPEDFAVYYCHQSSRLPHTFGQGTKVEIK |
| 8.47 | 0.0146 | 1.72e+06 | 10.4 | 0.0127 | 1.22e+06 | VRDN-02556 (antibody, V domains shown) VH: EVQLVQSGGGLVKPGGSLRLSCAASGFTFSSFAMHWVRQAPGKGLEWISVIDTRGATYYADSVKGRFTISRDNAKNSLYLQMNSLRAEDTAVYYCARLGNFYYHMDVWGQGTTVTVSS VL: EIVLTQSPGTLSVSPGERATLSCRASQSIGSSLHWYQQKPGQAPRLLIKHASQSLSGIPDRFSGSGSGTDFTLTISRLEPEDFAVYYCHQSSRLPHTFGQGTKVEIK |
